Patent publication EP4682164A1 (Curogen Technology Co., Ltd., dated 2026)

T1: human IL-17F (IL-17FF homodimer) (human, UniProt Q96PD4 31-163)
T1 sequence (looked up): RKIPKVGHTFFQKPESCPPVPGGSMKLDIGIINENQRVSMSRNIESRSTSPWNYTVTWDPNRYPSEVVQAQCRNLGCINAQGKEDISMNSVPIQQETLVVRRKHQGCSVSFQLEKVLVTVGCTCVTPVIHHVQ


What was measured:
[1] = molecular target: T1, human IL-17F (IL-17FF homodimer); assay: cell-based or functional assay
[2] = molecular target: T2, human IL-17A (IL-17AA homodimer) (human, UniProt Q16552 20-155, limits assumed); assay: cell-based or functional assay
T2 sequence (Q16552 20-155 limits assumed): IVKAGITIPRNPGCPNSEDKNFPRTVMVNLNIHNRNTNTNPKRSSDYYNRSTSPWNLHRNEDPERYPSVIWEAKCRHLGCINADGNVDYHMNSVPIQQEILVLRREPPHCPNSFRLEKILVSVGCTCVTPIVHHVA

[3] = molecular target: T2, human IL-17A (IL-17AA homodimer); assay: ELISA, cytokine coated on plate, binder titrated, HRP secondary antibody
[4] = molecular target: human TNFα (human, UniProt P01375 77-233); assay: cell-based or functional assay
Chain of human TNFα (P01375 77-233 limits assumed): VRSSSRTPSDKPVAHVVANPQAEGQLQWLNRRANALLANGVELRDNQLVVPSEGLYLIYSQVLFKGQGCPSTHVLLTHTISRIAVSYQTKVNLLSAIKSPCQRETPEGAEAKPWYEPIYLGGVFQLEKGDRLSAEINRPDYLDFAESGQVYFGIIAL

Row | IC50 (ng/mL) of hIL-17F, SEAP reporter assay in HEK-Blue IL-17 cells [1] [ng/mL] | IC50 (ng/mL) of hIL-17A, SEAP reporter assay in HEK-Blue IL-17 cells [2] [ng/mL] | EC50 [3] [ng/mL] | IC50 (ng/mL) of hTNFα, SEAP reporter assay in HEK-Blue TNFα cells [4] [ng/mL] | Binder
1 | 1030 | 23.7 |  |  | T1-T4-30 (Fc fusion) LRLLDHRAPVCSQPGLNCTVKNSDCLDDSWIHPRNLTPSSPKDLQIQLHFAHTQQGDLVPVAHIEWTLQTDASILYLEGAELSVLQLDTNERLCVRFEFLSKLRHHHRRWRFTFSHFVVDPGQEYEVTVHHLPKPIPDGDPNHQSKNFLVPDCEHPRMKVTTPCMSSALPWLNVSADGDNVHLVLNVSEEQHFGLSLYWNQVQGPPKPRWHKNLTGPQIITLNHTDLVPCLCIQVWPLEPDSVRTNICPFREDPRAHQNLWQAARLRLLTLQSWLLDAPCSLPAEAALCWRAPGGDPCQPLVPPLSWENVTVDKVLEFPLLKGHPNLCVQVNSSEKLQLQECLWADSLGPLKDDVLLLETRGPQDNRSLCALEPSGCTSLPSKASTRAARLGEYLLQDLQSGQCLQLWDDDLGALWACPMDKYIHKTGIEGRMDRNTGRGGEEKKKEKEKEEQEERETKTPECPSHTQPLGVFLFPPKPKDTLMISRTPEVTCVVVDVSQEDPEVQFNWYVDGVEVHNAKTKPREEQFNSTYRVVSVLTVLHQDWLNGKEYKCKVSNKGLPSSIEKTISKAKGQPREPQVYTLPPSQEEMTKNQVSLTCLVKGFYPSDIAVEWESNGQPENNYKTTPPVLDSDGSFFLYSRLTVDKSRWQEGNVFSCSVMHEALHNHYTQKSLSLSLGKGGGGSGGGGSGGGGSLELPAQVAFTPYAPEPGSTCRLREYYDQTAQMCCSKCSPGQHAKVFCTKTSDTVCDSCEDSTYTQLWNWVPECLSCSSRCSSDQVETQACTREQNRICTCRPGWYCALSKQEGCRLCAPLRKCRPGFGVARPGTETSDVVCKPCAPGTFSNTTSSTDICRPHQICNVVAIPGNASMDAVCTSTSPTRSMAPGAVHLPQPVSTRSQHTQPTPEPSTAPSTSFLLPMGPSPPAEGSTGD
2 |  | 19.9 | 8.41 | 116 | T1-T4-12 (Fc fusion, also called T1c-Fc-T4e; IL-17RA/RC-Fc-TNFR2) LRLLDHRAPVCSQPGLNCTVKNSDCLDDSWIHPRNLTPSSPKDLQIQLHFAHTQQGDLVPVAHIEWTLQTDASILYLEGAELSVLQLDTNERLCVRFEFLSKLRHHHRRWRFTFSHFVVDPGQEYEVTVHHLPKPIPDGDPNHQSKNFLVPDCEHPRMKVTTPCMSSALPWLNVSADGDNVHLVLNVSEEQHFGLSLYWNQVQGPPKPRWHKNLTGPQIITLNHTDLVPCLCIQVWPLEPDSVRTNICPFREDPRAHQNLWQAARLRLLTLQSWLLDAPCSLPAEAALCWRAPGGDPCQPLVPPLSWENVTVDKVLEFPLLKGHPNLCVQVNSSEKLQLQECLWADSLGPLKDDVLLLETRGPQDNRSLCALEPSGCTSLPSKASTRAARLGEYLLQDLQSGQCLQLWDDDLGALWACPMDKYIHKTGIEGRMDRNTGRGGEEKKKEKEKEEQEERETKTPECPSHTQPLGVFLFPPKPKDTLMISRTPEVTCVVVDVSQEDPEVQFNWYVDGVEVHNAKTKPREEQFNSTYRVVSVLTVLHQDWLNGKEYKCKVSNKGLPSSIEKTISKAKGQPREPQVYTLPPSQEEMTKNQVSLTCLVKGFYPSDIAVEWESNGQPENNYKTTPPVLDSDGSFFLYSRLTVDKSRWQEGNVFSCSVMHEALHNHYTQKSLSLSLGKGGGGSGGGGSGGGGSLELPAQVAFTPYAPEPGSTCRLREYYDQTAQMCCAKCPPGQHAKVFCTKTSDTVCDSCEDSTYTQLWNWVPECLSCGSRCSSDQVETQACTREQNRICTCRPGWYCALSKQEGCRLCAPLSKCRPGFGVARPGTETSDVVCKPCAPGTFSNTTSSTDICRPHQICSVVAIPGNASMDAVCTSTSPTRSMAPGAVHLPQPVSTRSQHTQPTPGPSTAPSTSFLLPMGPSPPAEGSTGD
